Here are results for three molecules from publication PMC6465933, “Direct Binding of the Flexible C-Terminal Segment of Periaxin to β4 Integrin Suggests a Molecular Basis for CMT4F” (Frontiers in Molecular Neuroscience, 2019).

To fix the notation:
B1: His-tagged rat β4-FNIII-3 (β4 integrin amino acids 1512–1602) (domain or fragment, UniProt Q64632 1512-1602, looked up)
chain: PDTPTRLVFSALGPTSLKVSWQEPQCDRALLGYSVEYQLLNGGEMHRLNIPNPGQTSVVVEDLLPNHSYVFRVRAQSQEGWGREREGVITI
notes: β4 integrin, third cytoplasmic fibronectin type III domain, rat, amino acids 1512-1602, synthetic gene in pJ401; No tag cleavage is described for this protein; the His tag is partly seen in the crystal structure; also called His-β4-FNIII-3; rFNIII-3; source: E. coli BL21(DE3), purified (Ni-NTA, SEC)
B2: rat L-PRX C-terminal region (amino acids 1036–1383) (domain or fragment, UniProt Q63425 1036-1383, looked up)
chain: EVELVTPGAQETEKVTSGVKPSGLQVSTTRQVVAEGQEGAQRVSSLGISLPQVELASFGEAGPEIAAPSAEGTVGSRIQVPQVMLELPGTQVAGGDLLVGEGIFKMPTVTVPQLELDVGLGHEAQAGETAKSEGGLKLKLPTLGAGGKGEGAEAQSPEAQHTFHISLPDVELTSPVSSHAEYQVVEGDGDGGHKLKVRLPLFGLARAKEGIETGEKVKSPKLRLPRVGFSQSESASGEGSPSPEEEEEGSGEGASGRRGRVRVRLPRVGLASPSKGSKGQEGDAASKSPVGEKSPKFRFPRVSLSPKARSGSKDREEGGFRVRLPSVGFSETAAPGSARIEGTQAAAI
notes: After TEV cleavage an additional N-terminal Ser residue is left; also called rPRX-C; source: E. coli BL21(DE3), purified (Ni-NTA in urea, TEV cleavage, second Ni-NTA, SEC)

The target in experiment [1] is B2. Put plainly: ITC; 680 μM β4-FNIII-3 titrated into 68 μM PRX-C, 25°C, 20 mM HEPES, 150 mM NaCl, pH 7.5. The conditions noted are these: both partners purified.
Experiment [2] has as its target B1. Put plainly: SEC-MALS; with QELS; equimolar complex (145 μM each), Superdex 200 increase 3.2/300GL, 20 mM Tris, 150 mM NaCl, pH 7.4, ambient temperature. The conditions noted are these: both partners purified. On the technique in general: Size exclusion chromatography separates by hydrodynamic size, large species first.
In the next experiment the target is T1, β4 integrin FNIII-3 (Homo sapiens, UniProt P16144).
T1 chain: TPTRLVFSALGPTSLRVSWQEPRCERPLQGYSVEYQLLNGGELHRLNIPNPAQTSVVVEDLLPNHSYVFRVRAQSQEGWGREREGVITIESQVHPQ
Put plainly: ITC.

For the molecule B1, in experiment [1], binding was characterised by a dissociation constant (Kd) of 1.7 ± 0.1 µM; the dH came out at 6.2 ± 0.06 kcal/mol; the stoichiometry N – broadly, a count of units in the complex or per binding partner – is approximately 1.

As for B2, the “stoichiometry N” value in experiment [2] came to 1.

B3: periaxin C-terminal segment (protein)
chain: SGRRGRVRVRLPRVGLAAPSKASRGQEGDAAPKSPVREKSPKFRFPRVSLSPKARSGSGDQEEGGLRVRLPSVGFSETGAPGPARMEGAQAAAV
Turning to B3, the Kd (commonly the free concentration of one partner at which half of the binding sites on the other are occupied at equilibrium, for simple one-to-one binding) with β4 integrin FNIII-3 is 1.7 µM. This lies in the single-digit micromolar range.
